According to patent US20260000740A1, “USE OF A L-ASPARAGINASE IN COMBINATION WITH A FERROPTOSIS INDUCER FOR THE TREATMENT OF EXTRANODAL NATURAL KILLER/T-CELL LYMPHOMA” (Institut National de la Santé et de la Recherche Médicale, priority 2022, published 2026):

B1: Kidrolase: L-Asparaginase from E. Coli (Kidrolase®) (protein, UniProt P00805 23-348, looked up)
L-asparaginase 2: LPNITILATGGTIAGGGDSATKSNYTVGKVGVENLVNAVPQLKDIANVKGEQVVNIGSQDMNDNVWLTLAKKINTDCDKTDGFVITHGTDTMEETAYFLDLTVKCDKPVVMVGAMRPSTSMSADGPFNLYNAVVTAADKASANRGVLVVMNDTVLDGRDVTKTNTTDVATFKSVNYGPLGYIHNGKIDYQRTPARKHTSDTPFDVSKLNELPKVGIVYNYANASDLPAKALVDAGYDGIVSAGVGNGNLYKSVFDTLATAAKTGTAVVRSSRVPTGATTQDAEVDDAKYGFVASGTLNPQKARVLLQLALTQTKDPQQIQQIFNQY
B2: Erwinase: L-ASP protein from Erwinia chrysanthemi, named crisantaspase, marketed as Erwinase®; SEQ ID NO:1 (protein, listed as Erwinia chrysanthemi)
chain: ADKLPNIVILATGGTIAGSAATGTQTTGYKAGALGVDTLINAVPEVKKLANVKGEQFSNMASENMTGDVVLKLSQRVNELLARDDVDGVVITHGTDTVEESAYFLHLTVKSDKPVVFVAAMRPATAISADGPMNLLEAVRVAGDKQSRGRGVMVVLNDRIGSARYITKTNASTLDTFKANEEGYLGVIIGNRIYYQNRIDKLHTTRSVFDVRGLTSLPKVDILYGYQDDPEYLYDAAIQHGVKGIVYAGMGAGSVSVRGIAGMRKAMEKGVVVIRSTRTGNGIVPPDEELPGLVSDSLNPAHARILLMLALTRTSDPKVIQEYFHTY

Experiments:
[1] = tested on: lipid peroxidation; test: Lipid peroxidation in KHYG1 cell line; assay type: cell-based, human; conditions: added to RSL3 combined with Erwinase; FIG. 2B
[2] = tested on: KHYG-1 cells; test: Cell viability measurement by flow cytometry (Annexin V/PI); assay type: cell-based, human; conditions: for Effect of Gln addition on cell death: Gln addition combined to treatment alone; for Asparaginase sensitivity: KHYG1 cell line
Description: KHYG-1 cells were seeded into flat wells of a 96-wells plate (Falcon) at a final concentration of 0.1 10^6 cells/well. APR-246 was dispensed at a final concentration of 20 uM and Asparaginases were dispensed at a final concentration range from 0.1 to 1 UI/mL. Plates were incubated at 37° C. and 5% CO2 for 72 hours in a humidity chamber. Cell viability was determined by flow cytometry using Annexin V (APC Annexin V, BD Biosciences, ref: 550474, 1:100 dilution)/Propidium Iodide (PI) (Propidium Iodide, Invitrogen, ref: BMS500FI-100, 1:20 dilution) staining. After 20 min incubation at 4° C. away from light, flow cytometry was performed using BD Fortessa cytometer (with HTS device for plate reading).
Flow cytometry data were analysed using FlowJo software and GraphPad-Prism 9. R software and Rstudio interface (version 1.4.1106) were used for synergy score calculation. Calculations were based on the Loewe model.

[3] = tested on: GSH; test: Quantification of GSH levels and GSH/GSSG ratio in tumor cells (metabolomics, specific quantification); assay type: cell-based, human; conditions: for GSH / GSH/GSSG ratio: metabolomic analysis in tumor cells after one day treatment, single agent
Source text: (§1) Then, we wanted to uncover the metabolic changes induced by ASNase resistance.

[4] = tested on: YT1 cell line; test: Asparaginase sensitivity of cell lines; assay type: cell-based, human
[5] = tested on: MEC-04 cell line; test: Asparaginase sensitivity of cell lines; assay type: cell-based, human
[6] = tested on: NALM6 human acute lymphoblastic leukemia cell line; test: Asparaginase sensitivity of cell lines; assay type: cell-based
[7] = tested on: extracellular Gln; test: Extracellular glutamine levels in supernatant of cultured cells; assay type: cell-based, human; conditions: cells cultured with each drug; compared to Kidrolase; data not shown
Source text: Glutamine (Gln) intake from extracellular compartment is converted in Glutamate (Glu) by glutaminase (GLS) and participates to cancer cells protection from oxidative stress through solute carrier family 7-member 11 (SLC7A11) expression. SLC7A11 encodes the cystine/Glu antiporter xCT which imports cysteine into the cell in exchange for Glu […].

[8] = tested on: mitochondrial ROS; test: Quantification of mitochondrial ROS levels in tumor cells; assay type: cell-based, human; conditions: Erwinase compared to Kidrolase; data not shown
Source text: as §1

Molecule | Effect of ferrostatin-1 addition on lipid peroxidation accumulation [1] | Effect of co-treatment with ferrostatin-1 on the decrease in cell viability ([2]; RSL3+Erwinase-treated cells, data not shown) | Effect of ferrostatin-1 addition on GSH decrease ([3]; added to RSL3 combined with Erwinase, FIG. 2B) | Effect of Gln addition on cell death ([2]; data not shown) | Asparaginase sensitivity [4] | Asparaginase sensitivity [5] | Asparaginase sensitivity [2] | Asparaginase sensitivity [6] | GSH ([3]; data not shown) | GSH/GSSG ratio ([3]; data not shown) | Gln extracellular levels in the supernatant [7] | ROS levels [8] | GSH levels ([3]; Erwinase compared to Kidrolase, data not shown) | Effect of extracellular Gln addition on intracellular GSH levels ([3]; upon Erwinase treatment, data not shown)
CCOC(=O)c1ccc(NC2CCCCC2)c(N)c1 [ferrostatin-1, reference compound] | reversed | abrogated | reversed |  |  |  |  |  |  |  |  |  |  | 
COCC1(CO)C(=O)C2CCN1CC2 (stereo not shown) [APR-246, 2-(hydroxymethyl)-2-(methoxymethyl)-1-azabicyclo[2.2.2]octan-3-one, reference compound] |  |  |  | no effect |  |  |  |  |  |  |  |  |  | 
B1 |  |  |  | no effect | high sensitivity | high sensitivity | resistant | resistant | decrease | decrease |  |  |  | 
B2 |  |  |  | partially prevents cell death | high sensitivity | high sensitivity | resistant | resistant | more pronounced | more pronounced | deeper extracellular Gln depletion | higher ROS levels | GSH decrease | significantly rescues
